Literature values in article PMC8442009.

How the values were obtained:
IL-4Rα (Homo sapiens) = IL-4Rα (Homo sapiens) (UniProt P24394)
IL-4Rα/γc (Homo sapiens) = IL-4Rα/γc (Homo sapiens) (UniProt P24394)
γc (Homo sapiens) = γc (Homo sapiens) (UniProt P31785)
UniProt P31785, sequence (P31785 23-262): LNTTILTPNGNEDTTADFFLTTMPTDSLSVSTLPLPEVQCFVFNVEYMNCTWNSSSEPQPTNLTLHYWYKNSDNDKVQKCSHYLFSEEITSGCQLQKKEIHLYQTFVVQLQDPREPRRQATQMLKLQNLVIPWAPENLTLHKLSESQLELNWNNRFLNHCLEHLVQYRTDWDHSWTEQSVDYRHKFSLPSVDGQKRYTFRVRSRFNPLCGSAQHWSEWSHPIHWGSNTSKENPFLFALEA

Row | Kd (IL-4Rα (Homo sapiens)) | Kd (IL-4Rα/γc (Homo sapiens)) | Kd (γc (Homo sapiens)) | Substance
1 | 0.266 nM | 0.079 nM | – | IL-4 (from UniProt P05112)
2 | – | – | > 500 nM | IL-4-IL-4Rα (from UniProt P05112)
